The text below walks through data of US20070196354A1, “Method of treating diabetes by inhibiting degradation of at least one of crebl1, atf6, and hnf-4 alpha by htra” (priority 2003, published 2007).

Substitutions are numbered along the chain they refer to. Numbers in names are those of the source.

The test system of one series is casein. Nature of the series: Casein zymography and protease assay with casein sodium. It counts as biochemical. Conditions: for protease activity using casein sodium as a substrate: HtrA2 types expressed in a cultured cell. Here is the method:
Determination of the activity of mature HtrA2 and mature HtrA2 (S306A) was carried out with casein zymography and with a protease assay with casein sodium. Casein zymography was carried out according to the protocol (Invitrogen). More concretely, mature HtrA2 and mature HtrA2 (S306A) were mixed under non-reductive condition with equivalent volume of 2×SDS sample buffer, left to stand at room temperature for 10 min, followed by separation with 4-16% zymogram (Blue casein) gel (Zymogram Gel, Invitrogen). After completion of electrophoresis, they were renatured with 2.5% Triton X-100, and then subjected to a degradation reaction of casein in the developing buffer at 37= C. for overnight.
Meanwhile, a protease assay using casein sodium as an substrate was carried out in such that mature HtrA2 or mature HtrA2 (S306A) was mixed with casein sodium in a reaction buffer (150 mM NaCl, 50 mM Tris-HCl (pH 7.5)) so as to the concentration of the former might become 200 μg/ml and the concentration of the latter might become 400 μg/ml, and incubated at 37° C. for reactions. A portion of the reaction solution was sampled at three hours and overnight after initiation of the reaction, mixed with equivalent volume of 2×SDS sample buffer followed by boiling, and then subjected to SDS-PAGE. After that, the degradation of casein sodium was detected by Coomassie Brilliant Blue (CBB) staining.
The enzyme activity of the various types of HtrA2 each of which was expressed in a cultured cell was determined by the protease assay using casein sodium as a substrate (see Example 2).

In a further series the target is T1, CREBL1 (Homo sapiens, UniProt Q99941).
T1 construct: expressed in transfected cells; host or cells: HEK293T
T1 sequence (Q99941 1-703): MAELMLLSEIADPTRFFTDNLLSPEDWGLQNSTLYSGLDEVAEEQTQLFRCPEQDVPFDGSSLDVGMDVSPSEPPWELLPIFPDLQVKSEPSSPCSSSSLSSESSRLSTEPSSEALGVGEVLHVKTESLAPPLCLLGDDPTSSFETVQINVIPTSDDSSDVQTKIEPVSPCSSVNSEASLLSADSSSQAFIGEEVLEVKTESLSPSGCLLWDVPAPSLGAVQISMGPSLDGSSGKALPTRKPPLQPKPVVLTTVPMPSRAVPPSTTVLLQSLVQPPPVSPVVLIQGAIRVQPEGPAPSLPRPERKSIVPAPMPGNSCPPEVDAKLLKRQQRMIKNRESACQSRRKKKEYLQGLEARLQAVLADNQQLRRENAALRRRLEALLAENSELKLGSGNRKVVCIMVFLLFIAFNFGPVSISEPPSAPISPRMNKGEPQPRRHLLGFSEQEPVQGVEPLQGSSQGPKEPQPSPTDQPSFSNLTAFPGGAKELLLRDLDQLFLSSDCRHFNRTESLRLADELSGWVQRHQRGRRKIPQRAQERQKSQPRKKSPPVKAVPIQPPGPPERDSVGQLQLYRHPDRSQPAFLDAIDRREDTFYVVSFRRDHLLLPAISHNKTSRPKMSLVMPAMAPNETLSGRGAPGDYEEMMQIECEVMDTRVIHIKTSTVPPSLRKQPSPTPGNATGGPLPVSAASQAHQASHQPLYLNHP
Put plainly: Intracellular protease assay, co-expression with CREBL1 in HEK293T cells. It counts as cell-based. Conditions: 48 hours. Here is the method:
(§1) HEK293T cells were cultured to 1.5×10^5 cells/10 cm Dish. Next day, the expression plasmid of CREBL1 or ATF6 was transfected into HEK293T cells together with the expression plasmid of various types of HtrA2 using FuGene 6 (Roche). Each of the expression plasmid of various HtrA2 at 1 μg/Dish was added in combination with CREBL1 expression plasmid or ATF6 expression plasmid at 1 μg/Dish. Forty eight hours later, the cells in which the various types of HtrA2 were co-expressed with CREBL1 or ATF6 were added with 200 μl of lysis buffer B and an equivalent volume of 2×SDS sample buffer (containing 0.1% β-mercaptoethanol), and then subjected to sonication followed by boiling to use as a test sample.
(§2) Expression of CREBL1 and ATF6 and the degradation of these proteins were detected by western blotting using 10 μl of the test sample thus obtained. Anti-c-Myc (9E10) antibody was used as a primary antibody for detection, and horseradish peroxidase (HRP) conjugated anti-mouse IgG antibody (Cell Signaling) was used as a secondary antibody. Detection was carried out using ECL Western Blotting Detection System.

The target of the next series is T2, ATF6 (Homo sapiens, UniProt P18850).
T2 construct: expressed in transfected cells; host or cells: HEK293T
T2 sequence (P18850 1-670): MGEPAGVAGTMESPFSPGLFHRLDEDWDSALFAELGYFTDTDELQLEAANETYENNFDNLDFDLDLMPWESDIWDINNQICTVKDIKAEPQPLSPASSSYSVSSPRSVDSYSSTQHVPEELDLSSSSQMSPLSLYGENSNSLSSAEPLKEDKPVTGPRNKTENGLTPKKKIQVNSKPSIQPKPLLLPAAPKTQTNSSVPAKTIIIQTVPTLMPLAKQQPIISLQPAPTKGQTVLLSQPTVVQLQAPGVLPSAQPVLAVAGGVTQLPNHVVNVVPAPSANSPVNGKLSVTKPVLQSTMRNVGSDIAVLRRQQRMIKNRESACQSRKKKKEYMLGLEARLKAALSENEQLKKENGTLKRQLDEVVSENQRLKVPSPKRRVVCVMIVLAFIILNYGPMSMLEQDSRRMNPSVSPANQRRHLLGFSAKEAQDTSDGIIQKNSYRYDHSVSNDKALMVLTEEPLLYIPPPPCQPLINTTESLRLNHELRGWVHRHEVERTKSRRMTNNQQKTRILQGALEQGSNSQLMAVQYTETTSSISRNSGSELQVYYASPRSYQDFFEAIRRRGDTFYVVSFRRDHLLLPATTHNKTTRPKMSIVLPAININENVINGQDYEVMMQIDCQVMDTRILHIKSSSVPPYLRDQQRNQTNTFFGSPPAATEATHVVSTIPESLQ
Put plainly: Intracellular protease assay, co-expression with ATF6 in HEK293T cells. It counts as cell-based. As to conditions: 48 hours. The method, then:
as §1, §2

The target in a further series is T3, HNF-4α (Homo sapiens, UniProt P41235).
T3 construct: expressed in transfected cells; host or cells: HEK293T
T3 sequence (P41235 10-474): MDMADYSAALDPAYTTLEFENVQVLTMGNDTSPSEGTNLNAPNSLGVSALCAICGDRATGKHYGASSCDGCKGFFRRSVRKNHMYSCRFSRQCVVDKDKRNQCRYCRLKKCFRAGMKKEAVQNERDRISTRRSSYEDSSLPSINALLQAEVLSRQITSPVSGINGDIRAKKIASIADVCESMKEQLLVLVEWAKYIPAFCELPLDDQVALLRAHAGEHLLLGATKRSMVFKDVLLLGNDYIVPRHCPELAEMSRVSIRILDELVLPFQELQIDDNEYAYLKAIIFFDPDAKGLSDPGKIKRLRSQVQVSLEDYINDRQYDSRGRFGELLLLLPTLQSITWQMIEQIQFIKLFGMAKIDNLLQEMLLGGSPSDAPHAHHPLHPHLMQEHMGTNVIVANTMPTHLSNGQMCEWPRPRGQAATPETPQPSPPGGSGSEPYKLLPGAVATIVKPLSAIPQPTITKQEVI
Put plainly: Intracellular protease assay, co-expression with HNF-4α in HEK293T cells. In kind it is cell-based. Conditions: 48 hours. The method, then:
as §1, with “cells/6” for “cells/10”, “HNF-4α” for “CREBL1 or ATF6”, “HNF-4α” for “CREBL1 expression plasmid or ATF6”
Expression of HNF-4α and the degradation of HNF-4α were detected by western blotting using 10 μl of the test sample thus obtained. Anti-FLAG antibody (Sigma) was used as a primary antibody for detection, and horseradish peroxidase (HRP) labeled anti-mouse IgG antibody (Cell Signaling) was used as a secondary antibody. Detection was carried out using ECL Western Blotting Detection System.

B1: mature HtrA2 (ΔAVPS): SEQ ID NO: 8; lacks the N-terminal four amino acid residues (AVPS) of mature HtrA2 (protein)
chain: MPPPASPRSQYNFIADVVEKTAPAVVYIEILDRHPFLGREVPISNGSGFVVAADGLIVTNAHVVADRRRVRVRLLSGDTYEAVVTAVDPVADIATLRIQTKEPLPTLPLGRSADVRQGEFVVAMGSPFALQNTITSGIVSSAQRPARDLGLPQTNVEYIQTDAAIDFGNSGGPLVNLDGEVIGVNTMKVTAGISFAIPSDRLREFLHRGEKKNSSSGISGSQRRYIGVMMLTLSPSILAELQLREPSFPDVQHGVLIHKVILGSPAHRAGLRPGDVILAIGEQMVQNAEDVYEAVRTQSQLAVQIRRGRETLTLYVTPEVTE
modifications: Polypeptide consisting of the same amino acid sequence of SEQ ID NO4 wherein the amino acid residues from the 2nd to the 5th are deleted; mature HtrA2(delta AVPS)
B1: the “protease activity using casein sodium as a substrate” value in the series with casein is recorded as “active type having protease activity”. Moreover, the “degradation of CREBL1 in cells (band by western blotting)” value with CREBL1 is on record as “the band of CREBL1 was reduced significantly”. In the series with ATF6, the “degradation of ATF6 in cells (band by western blotting)” value is given as “the band of ATF6 was reduced significantly”. Further, the “degradation of HNF-4α in cells (band by western blotting)” value in the series with HNF-4α was “the band of HNF-4α was reduced significantly”.

B2: mature HtrA2 (S306A): SEQ ID NO: 6; HtrA2 mutant with substitution of the 174th serine residue of mature HtrA2 with alanine (protein)
chain: MAVPSPPPASPRSQYNFIADVVEKTAPAVVYIEILDRHPFLGREVPISNGSGFVVAADGLIVTNAHVVADRRRVRVRLLSGDTYEAVVTAVDPVADIATLRIQTKEPLPTLPLGRSADVRQGEFVVAMGSPFALQNTITSGIVSSAQRPARDLGLPQTNVEYIQTDAAIDFGNAGGPLVNLDGEVIGVNTMKVTAGISFAIPSDRLREFLHRGEKKNSSSGISGSQRRYIGVMMLTLSPSILAELQLREPSFPDVQHGVLIHKVILGSPAHRAGLRPGDVILAIGEQMVQNAEDVYEAVRTQSQLAVQIRRGRETLTLYVTPEVTE
modifications: Polypeptide consisting of the same amino acid sequence of SEQ ID NO4 wherein the 174th amino acid residue is substituted by Ala; mature HtrA2(S306A)
notes: HtrA2 mutant with substitution of the 174th serine residue of mature HtrA2 with alanine
For B2, the degradation of casein result with casein (casein zymography and casein sodium protease assay, 37° C., E. coli-expressed His-tagged protein) is reported as “degradation of casein was not observed”.

B3: mature HtrA2 (GVPS): SEQ ID NO: 10; substitution of alanine among the N-terminal four residues of mature HtrA2 with glycine (protein)
chain: B2 chain with A2G, A174S
modifications: Polypeptide consisting of the same amino acid sequence of SEQ ID NO4 wherein the 2nd amino acid residue is substituted by Gly; mature HtrA2(GVPS)
notes: substitution of alanine among the N-terminal four residues of mature HtrA2 with glycine
Turning to B3, the “protease activity using casein sodium as a substrate” value with casein is reported as “active type having protease activity”. In the series with CREBL1, the “degradation of CREBL1 in cells (band by western blotting)” value was “the band of CREBL1 was reduced significantly”. Also, the “degradation of ATF6 in cells (band by western blotting)” value with ATF6 is given as “the band of ATF6 was reduced significantly”. Besides, the “degradation of HNF-4α in cells (band by western blotting)” value with HNF-4α is recorded as “the band of HNF-4α was reduced significantly”.
